Assay: methylation of 6-mercaptopurine by peptide barcoded TPMT, LC-ESI-MS
Assay type: biochemical
Conditions: 1 mM 6-mercaptopurine, 37° C., approximately 24 hours
Description: A polynucleotide encoding a peptide barcoded human thiopurine methyl transferase (TPMT) was incubated for 3 hours at 37° C. in the PURExpress® cell-free transcription/translation system (New England Biolabs, Inc. (Ipswich, Mass.)) according to the manufacturer's protocol in the presence (+protease) or the absence (−protease) of the WELQut-protease. […] After cell-free transcription/translation of peptide barcoded thiopurine methyl transferase (TPMT), 1 mM 6-mercaptopurine and phosphate buffered saline (0.1×) were added with (+cofactor) or without (−cofactor) 3.2 mM of the cofactor S-adenosyl-methionine (SAM). After incubation at 37° C., […] for approximately 24 hours (no shaking), methylation of 6-mercaptopurine and the presence of peptide barcode were determined by liquid chromatography-electrospray ionization-mass spectrometry (LC-ESI-MS).

B1: TPMT: peptide barcoded human thiopurine methyl transferase produced by cell-free transcription/translation (protein, UniProt P51580 1-245, looked up)
Thiopurine S-methyltransferase: MDGTRTSLDIEEYSDTEVQKNQVLTLEEWQDKWVNGKTAFHQEQGHQLLKKHLDTFLKGKSGLRVFFPLCGKAVEMKWFADRGHSVVGVEISELGIQEFFTEQNLSYSEEPITEIPGTKVFKSSSGNISLYCCSIFDLPRTNIGKFDMIWDRGALVAINPGDRKCYADTMFSLLGKKFQYLLCVLSYDPTKHPGPPFYVPHAEIERLFGKICNIRCLEKVDAFEERHKSWGIDCLFEKLYLLTEK
modifications: peptide barcode
notes: peptide barcoded human thiopurine methyl transferase produced by cell-free transcription/translation
**Q.** What does the source list for B1?
**A.** methylated 6-mercaptopurine detected by mass spectrometry (absence of cofactor S-adenosyl-methionine, absence of WELQut-protease): no methylated 6-mercaptopurine nor peptide barcode were detected; methylated 6-mercaptopurine detected by mass spectrometry (absence of cofactor S-adenosyl-methionine, presence of WELQut-protease): no methylated 6-mercaptopurine was detected; methylated 6-mercaptopurine detected by mass spectrometry (presence of cofactor S-adenosyl-methionine (3.2 mM) and WELQut-protease): methylated 6-mercaptopurine and the peptide barcode were detected; methylated 6-mercaptopurine detected by mass spectrometry (presence of cofactor S-adenosyl-methionine (3.2 mM), absence of WELQut-protease): methylated 6-mercaptopurine was detected

— patent publication US11339434B2, “Methods for determining gene functions” (The Regents of the University of California, priority 2016, dated 2022)
